Reference: PMC9429925
pKd: −log10 of the molar value. Each block holds one substance with its values, some of them ahead of it.

Columns and labels:
OmpR (Escherichia coli) = OmpR (Escherichia coli) (UniProt P0AA16); details: cited from earlier work
[1] = target: FixJ (Rhizobium meliloti) (UniProt P10958); details: cited from earlier work
DcuR = DcuR (UniProt P0AD01); assay: size exclusion chromatography with SDS-PAGE of fractions; details: reference: PASC-Kin without ATP, mixed with DcuR; sites H349

Chain of OmpR (Escherichia coli) (P0AA16 whole entry): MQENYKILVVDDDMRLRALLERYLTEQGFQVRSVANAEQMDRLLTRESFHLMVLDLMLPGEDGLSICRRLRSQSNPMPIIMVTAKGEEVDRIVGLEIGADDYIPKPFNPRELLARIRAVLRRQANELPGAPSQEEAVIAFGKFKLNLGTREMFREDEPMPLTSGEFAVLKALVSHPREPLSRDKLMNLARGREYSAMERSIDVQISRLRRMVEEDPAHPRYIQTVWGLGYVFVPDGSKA
Chain of EnvZ cytoplasmic portion (P0AEJ4 180-450): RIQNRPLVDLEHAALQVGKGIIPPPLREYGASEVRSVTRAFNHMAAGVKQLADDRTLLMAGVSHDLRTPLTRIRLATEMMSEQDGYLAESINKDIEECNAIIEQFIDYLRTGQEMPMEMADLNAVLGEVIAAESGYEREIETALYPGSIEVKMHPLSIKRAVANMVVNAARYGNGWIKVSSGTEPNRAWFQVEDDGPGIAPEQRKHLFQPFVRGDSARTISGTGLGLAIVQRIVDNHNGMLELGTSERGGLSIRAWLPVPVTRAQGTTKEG
Chain of FixJ (Rhizobium meliloti) (P10958 whole entry): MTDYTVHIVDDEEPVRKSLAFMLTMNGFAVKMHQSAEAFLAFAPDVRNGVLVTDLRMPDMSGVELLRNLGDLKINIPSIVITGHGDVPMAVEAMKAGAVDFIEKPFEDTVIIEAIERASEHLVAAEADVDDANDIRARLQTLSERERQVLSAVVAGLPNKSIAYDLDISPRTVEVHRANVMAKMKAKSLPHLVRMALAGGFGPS
Chain of FixL heme-binding and kinase domains (P10955 127-505): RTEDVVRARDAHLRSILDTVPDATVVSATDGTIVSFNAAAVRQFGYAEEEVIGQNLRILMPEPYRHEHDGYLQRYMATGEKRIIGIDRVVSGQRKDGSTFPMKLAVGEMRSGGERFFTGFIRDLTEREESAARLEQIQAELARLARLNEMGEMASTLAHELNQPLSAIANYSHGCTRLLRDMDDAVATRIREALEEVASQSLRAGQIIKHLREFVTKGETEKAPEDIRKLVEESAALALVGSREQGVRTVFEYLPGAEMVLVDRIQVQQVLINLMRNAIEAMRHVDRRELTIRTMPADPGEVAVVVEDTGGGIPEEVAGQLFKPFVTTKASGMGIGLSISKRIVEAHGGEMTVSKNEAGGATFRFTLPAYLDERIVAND

Substance: EnvZ cytoplasmic portion (from UniProt P0AEJ4)
pKd (OmpR (Escherichia coli)): 6.37

Substance: FixL heme-binding and kinase domains (from UniProt P10955)
pKd [1]: 5.40

other: mol DcuR per mol PASC-Kin in complex peak (DcuR): stronger; reference approximately 0.11
Substance: DcuS (cytoplasmic part: PASC-Kin) PASC-Kin, 212-539 (from UniProt P0AEC8) PASC-Kin pre-incubated with ATP, mixed with DcuR
